According to patent US20050118611, “Thioaptamers enable discovery of physiological pathways and new therapeutic strategies” (Board Of Regents, The University of Texas System, published 2005):

Biological target: NF-κB p65 (RelA) homodimer (UniProt Q04206 Q04206:1-551)
Assay: competition; inhibition/binding similar to unsubstituted aptamer; 32P IgκB competition
Conditions: protein: NAME; chain copies: 2 (stated)
Experimental: As the substitutions of dithiophosphate were increased, binding by the [S₂]-ODN oligonucleotide increased dramatically. For example, in a standard competitive binding assay, ³²P IgκB promoter element ODN is incubated with recombinant p65 and varying amounts of XBY aptamer competitor. The relative binding ability of the unlabeled ODNs is determined by the concentration needed to effectively compete with the standard labeled ODN. XBY1 through 6 correspond to CK-14 aptamers with 1 through 6 dithiophosphate substitutions, respectively. The present inventors, according to an embodiment of this invention, developed an oligonucleotide containing six dithioate linkages on the two strands, termed XBY-6. Unlike the fully substituted [S]-ODN CK-14, the XBY-6 hybrid backbone [S₂]-ODN aptamers bound more tightly to p50/p50 (5-fold) than to the p65 homodimer.

Sequence of NF-κB p65 (RelA) homodimer (Q04206 whole entry, one chain of several): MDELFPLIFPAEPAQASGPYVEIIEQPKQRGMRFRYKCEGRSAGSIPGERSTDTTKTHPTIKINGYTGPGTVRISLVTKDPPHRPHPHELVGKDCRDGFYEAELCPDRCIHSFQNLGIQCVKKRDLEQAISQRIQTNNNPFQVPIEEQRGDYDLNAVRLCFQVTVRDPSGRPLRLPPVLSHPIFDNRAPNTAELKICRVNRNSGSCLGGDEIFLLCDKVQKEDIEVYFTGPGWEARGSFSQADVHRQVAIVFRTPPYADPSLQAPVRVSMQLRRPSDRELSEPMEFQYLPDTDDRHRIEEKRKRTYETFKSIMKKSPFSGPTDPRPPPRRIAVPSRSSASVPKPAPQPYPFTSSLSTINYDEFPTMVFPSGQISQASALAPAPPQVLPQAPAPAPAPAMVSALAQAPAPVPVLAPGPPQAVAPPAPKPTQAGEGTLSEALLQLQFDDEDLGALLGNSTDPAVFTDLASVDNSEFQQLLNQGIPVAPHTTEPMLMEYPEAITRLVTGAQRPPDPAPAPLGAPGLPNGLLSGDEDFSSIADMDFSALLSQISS

B1: CK-14 with one or two dithioate linkages (XBY1, XBY2) (dsDNA)
DNA 1: CCAGGAGATTCCAC
DNA 2: GTGGAATCTCCTGG
modifications: 1 or 2 phosphorodithioates, positions not given
B1 was tested, and the binding signal was about 1 fold vs unsubstituted.
